Consider eight molecules from patent US20140178332A1 (published 2014).

Residue numbers refer to the chain shown, from its start.

B1: murine anti-human IL-12p40 monoclonal antibody 1D8 (antibody, V domains shown)
VH: QVQLQQSGAELMKPGASVKISCKATGYTFSSYWIEWVKQRPGHGLEWIGDILPGSGSTNYNEKFKDKATFTADTSFNTAYMQLSSLTSEDSAVYYCATRRFRGLDYWGQGTTLTVSS
VL: SIVMTQTPKFLLVSAGDRVTITCKASQSVSNDVAWYQQKSGQSPKLLIYYASNRYTGVPDRFTGSGYGTDFTFTISTVQPEDLAVYFCQQDYTSPFTFGSGTKLEIKR
notes: Murine mAb
B2: murine anti-human IL-12p40 monoclonal antibody 3G7 (antibody, V domains shown)
VH: QVQLQQSGAELMKPGASVKISCKATGYTFNDYWIEWVKQRPGHGLEWIGGFSHGSGSTNYNEKFKGKATFTADSSSNTAYMQLSSLTSEDSAVYYCARRRFRGMDYWGQGTSVTVSS
VL: B1 VL with S40P, S76T, P80A, T93S, F96W, T97S, S100G
notes: Murine mAb
B3: anti-IL-12p40 hybrid antibody 1D4.5 (antibody, human IgG1, kappa, L234A L235A, V domains shown)
VH: QVTLKESGPGILQPSQTLSLTCSFSGFSLRKSVMGVSWIRQPSGKGLEWLAHIYWDDDKYYNPSLKSRLTISKDPSRNQVFLKITSVDTADAATYYCTRRGIRSAMDYWGQGTSVTVSS
VL: DIVMTQSPDSLAVSLGERATINCKASQSVSNDVAWYQQKPGQPPKLLIYYASNRYTGVPDRFSGSGSGTDFTLTISSLQAEDVAVYYCQQDYNSPWTFGGGTKVEIKR
B4: anti-IL-12p40 hybrid antibody 1A6.7 (antibody, human IgG1, kappa, L234A L235A, V domains shown)
VH: QVTLKESGPGILKPSQTLSLTCSFSGFSLSTSGMGVSWIRQPSGKGLEWLAHIWWDGDNYYNPSLKSQLTISKDTSRNQVFLRIATVDTADTATYYCARRTRVNYAMDYWGQGTSVTVSS
VL: B3 VL
B5: anti-IL-12p40 hybrid antibody 1A6.4 (antibody, human IgG1, kappa, L234A L235A, V domains shown)
VH: B4 VH
VL: EIVMTQSPATLSVSPGERATLSCKASQSVSNDVAWYQQKPGQAPRLLIYYASNRYTGIPARFSGSGSGTEFTLTISSLQSEDFAVYYCQQDYNSPWTFGGGTKVEIKR
notes: Hybrid: chimeric murine H chain paired with CDR-grafted L chain
B6: anti-IL-12p40 hybrid antibody 1A6.3 (antibody, human IgG1, kappa, L234A L235A, V domains shown)
VH: EVTLKESGPVLVKPTETLTLTCTVSGFSLSTSGMGVSWIRQPPGKALEWLAHIWWDGDNYYNPSLKSRLTISKDTSKSQVVLTMTNMDPVDTATYYCARRTRVNYAMDYWGQGTTVTVSS
VL: B1 VL with I2V, Y36F, S40P, P80A, T93N, F96W, S100G
B7: anti-IL-12p40 hybrid antibody 1A6.8 (antibody, human IgG1, kappa, L234A L235A, V domains shown)
VH: B6 VH with K5R, V10A, E16Q, V24F, S78N
VL: B1 VL with I2V, Y36F, S40P, P80A, T93N, F96W, S100G
B8: anti-IL-12p40 hybrid antibody 1D4.4 (antibody, human IgG1, kappa, L234A L235A, V domains shown)
VH: EVTLRESGPALVKPTQTLTLTCTFSGFSLSKSVMGVSWIRQPPGKALEWLAHIYWDDDKYYNPSLKSRLTISKDTSKNQVVLTMTNMDPVDTATYYCARRGIRSAMDYWGQGTTVTVSS
VL: B1 VL with I2V, S40P, T74I, Q79R, P80A, T93N, F96W, S100G

For one experiment, the target named is T1, recombinant purified mouse IL-12 (Peprotech) (mouse, UniProt P43432 23-335; P43431 23-215).
T1 construct: Bought reagent; also called mu IL-12; murine IL-12
T1 sequence (looked up) 1: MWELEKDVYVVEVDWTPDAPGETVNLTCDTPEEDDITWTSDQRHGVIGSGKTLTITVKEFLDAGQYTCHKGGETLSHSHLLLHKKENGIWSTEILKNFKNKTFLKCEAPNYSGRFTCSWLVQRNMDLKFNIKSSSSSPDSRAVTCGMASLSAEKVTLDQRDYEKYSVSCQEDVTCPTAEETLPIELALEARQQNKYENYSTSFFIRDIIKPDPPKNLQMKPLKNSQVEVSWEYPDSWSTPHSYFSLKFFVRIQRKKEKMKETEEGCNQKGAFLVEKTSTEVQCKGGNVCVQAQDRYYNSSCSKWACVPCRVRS
T1 sequence (looked up) 2: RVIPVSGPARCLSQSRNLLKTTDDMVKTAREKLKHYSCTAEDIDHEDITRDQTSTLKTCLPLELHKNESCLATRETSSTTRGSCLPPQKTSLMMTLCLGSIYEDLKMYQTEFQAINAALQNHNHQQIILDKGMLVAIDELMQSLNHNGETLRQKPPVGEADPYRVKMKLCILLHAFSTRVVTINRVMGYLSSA
The experiment can be described thus: direct ELISA, plate coated with 5 ug/ml recombinant mouse IL-12. The procedure:
To determine whether the ten monoclonal antibodies described above recognize murine IL-12, two ELISAs were set up. First, a direct ELISA was set up by directly coating ELISA plates with 5 ug/ml of recombinant purified mouse IL-12 (Peprotech). Murine-anti-human IL-12 p40 mAbs were prepared at various concentrations ranging from 3 to 200 ng/ml in PBS containing 0.1% BSA (Sigma, St. Louis, Mo.). 50 μl of each antibody dilution was added to the coated ELISA plate and incubated for 1 hour at room temperature. Wells were washed 3 times with PBS containing 0.05% Tween-20. Anti-mouse IgG-HRP antibody (R&D #HAF007, Minneapolis, Minn.) was diluted 1:2000 in PBS containing 0.1% BSA; 50 ul/well was added and the plates incubated for 1 hour at room temperature. Fifty microliters of TMB solution (Sigma # T0440, St. Louis, Mo.) was added to each well and incubated for 10 minutes at room temperature. The reaction was stopped by addition of 2N sulphuric acid. Plates were read spectrophotmetrically at a wavelength of 450 nm.
Regarding B1, the binding result was “no binding (tested: 3 to 200 ng/ml mAb)”.

For B2, the binding result was “no binding (tested: 3 to 200 ng/ml mAb)”.

The next experiment deals with T2, recombinant purified human IL-12 p70 (human, UniProt P29459 23-219).
T2 construct: Disulfide-linked heterodimer of p35 and p40; also called hIL-12; Hu IL-12
T2 sequence 1: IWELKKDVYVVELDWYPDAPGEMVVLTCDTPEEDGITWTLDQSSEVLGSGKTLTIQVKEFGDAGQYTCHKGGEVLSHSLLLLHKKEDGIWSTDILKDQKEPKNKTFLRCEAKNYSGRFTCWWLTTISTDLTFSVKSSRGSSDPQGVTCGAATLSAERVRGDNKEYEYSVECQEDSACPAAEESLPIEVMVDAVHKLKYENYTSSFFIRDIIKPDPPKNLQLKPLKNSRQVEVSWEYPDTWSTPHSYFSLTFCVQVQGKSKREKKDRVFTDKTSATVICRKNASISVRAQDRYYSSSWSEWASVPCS
T2 sequence 2: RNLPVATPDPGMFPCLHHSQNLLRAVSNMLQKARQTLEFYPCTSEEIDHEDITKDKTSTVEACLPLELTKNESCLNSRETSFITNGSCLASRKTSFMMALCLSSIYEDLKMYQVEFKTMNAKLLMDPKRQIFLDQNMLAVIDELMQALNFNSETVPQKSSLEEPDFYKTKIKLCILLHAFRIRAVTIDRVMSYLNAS
The experiment in a line: SPR (Biacore), mAb captured on anti-mouse IgG Fc, IL-12 p70 as analyte. The procedure:
(§1) The BIACORE assay (Biacore, Inc, Piscataway, N.J.) determines the affinity of antibodies with kinetic measurements of on-, off-rate constants. Binding of antibodies to recombinant purified human IL-12 p70 or recombinant purified human IL-12 p40 were determined by surface plasmon resonance-based measurements with a Biacore® 3000 instrument (Biacore® AB, Uppsala, Sweden) using running HBS-EP (10 mM HEPES [pH 7.4], 150 mM NaCl, 3 mM EDTA, and 0.005% surfactant P20) at 25° C. All chemicals were obtained from Biacore® AB (Uppsala, Sweden) or otherwise from a different source as described in the text. Approximately 5000 RU of goat anti-mouse IgG, (Fcγ), fragment specific polyclonal antibody (Pierce Biotechnology Inc, Rockford, Ill.) diluted in 10 mM sodium acetate (pH 4.5) was directly immobilized across a CM5 research grade biosensor chip using a standard amine coupling kit according to manufacturer's instructions and procedures at 25 μg/ml. Unreacted moieties on the biosensor surface were blocked with ethanolamine. Modified carboxymethyl dextran surface in flowcell 2 and 4 was used as a reaction surface. Unmodified carboxymethyl dextran without goat anti-mouse IgG in flow cell 1 and 3 was used as the reference surface. For kinetic analysis, rate equations derived from the 1:1 Langmuir binding model were fitted simultaneously to association and dissociation phases of all eight injections (using global fit analysis) with the use of Biaevaluation 4.0.1 software. Purified antibodies were diluted in HEPES-buffered saline for capture across goat anti-mouse IgG specific reaction surfaces. Mouse antibodies to be captured as a ligand (25 μg/ml) were injected over reaction matrices at a flow rate of 5 μl/min. The association and dissociation rate constants, kₒₙ (unit M⁻¹ s⁻¹) and koff (unit s⁻¹) were determined under a continuous flow rate of 25 μl/min. Rate constants were derived by making kinetic binding measurements at ten different antigen concentrations ranging from 10-200 nM. The equilibrium dissociation constant (unit M) of the reaction between mouse antibodies and recombinant purified human IL-12 p70 or recombinant purified human IL-12 p40 was then calculated from the kinetic rate constants by the following formula: KD=koff/kₒₙ. Binding is recorded as a function of time and kinetic rate constants are calculated.
For orientation: In SPR one partner is held on a chip, and binding of the other changes the refractive index at the surface.
With B1, the Kd is 0.044 nM, the koff was 2.3e-05 s⁻¹ and the kon was determined as 510000 M⁻¹ s⁻¹.

Regarding B2, the Kd worked out at 0.047 nM, the koff came out at 3.8e-05 s⁻¹ and the kon was 820000 M⁻¹ s⁻¹.

A further experiment has as its target T2, recombinant purified human IL-12 p70. The experiment in a line: cell-based or functional assay.
As for B3, the “Av. IC50 (nM) huIL-12, PHA blast assay” value came to 0.053 nM.

B4: the “Av. IC50 (nM) huIL-12, PHA blast assay” value came out at 0.29 nM.

For the molecule B5, the “Av. IC50 (nM) huIL-12, PHA blast assay” value came out at 2.1 nM.

Turning to B6, the “Av. IC50 (nM) huIL-12, PHA blast assay” value is 0.068 nM.

In the case of B7, the “Av. IC50 (nM) huIL-12, PHA blast assay” value was 0.08 nM.

With B8, the “Av. IC50 (nM) huIL-12, PHA blast assay” value was found to be 0.64 nM.

Another experiment concerns the target T3, recombinant purified cyno IL-12 p70 (cynomolgus monkey).
T3 chain 1: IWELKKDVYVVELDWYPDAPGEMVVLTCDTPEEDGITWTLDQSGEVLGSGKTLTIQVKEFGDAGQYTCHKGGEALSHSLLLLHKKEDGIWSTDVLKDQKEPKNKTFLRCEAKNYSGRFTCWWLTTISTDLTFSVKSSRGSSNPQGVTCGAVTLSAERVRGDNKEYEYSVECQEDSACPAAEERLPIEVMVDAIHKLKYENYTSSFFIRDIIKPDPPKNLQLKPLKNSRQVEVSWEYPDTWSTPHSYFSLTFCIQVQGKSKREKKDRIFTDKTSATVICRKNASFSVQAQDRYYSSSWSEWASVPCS
T3 chain 2: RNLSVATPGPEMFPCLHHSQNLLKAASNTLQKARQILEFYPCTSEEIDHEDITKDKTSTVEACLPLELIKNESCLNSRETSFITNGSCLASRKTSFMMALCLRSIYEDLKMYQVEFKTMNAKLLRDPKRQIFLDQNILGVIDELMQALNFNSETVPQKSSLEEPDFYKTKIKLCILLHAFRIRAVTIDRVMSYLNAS
The experiment can be described thus: cell-based or functional assay.
For B3, the “Av. IC50 (nM) Cyno IL-12, PHA blast assay” value worked out at 0.11 nM.

Consider B4, for which the “Av. IC50 (nM) Cyno IL-12, PHA blast assay” value stood at 0.35 nM.

B5: the “Av. IC50 (nM) Cyno IL-12, PHA blast assay” value is 1.2 nM.

Take B6: the “Av. IC50 (nM) Cyno IL-12, PHA blast assay” value was found to be 0.049 nM.

For the molecule B7, the “Av. IC50 (nM) Cyno IL-12, PHA blast assay” value turned out to be 0.06 nM.

Take B8: the “Av. IC50 (nM) Cyno IL-12, PHA blast assay” value was 1.1 nM.

The target of the next experiment is T2, recombinant purified human IL-12 p70. The experiment can be described thus: SPR (BIAcore) as in Example 1.1.B. The procedure: as §1
As for B3, the equilibrium dissociation constant (Kd) was found to be 0.11 nM, the off-rate (koff) turned out to be 3.1e-05 s⁻¹ and the kon was 300000 M⁻¹ s⁻¹.

As for B5, the Kd amounted to 1 nM, the koff is 0.00011 s⁻¹ and the on-rate constant (kon) came to 110000 M⁻¹ s⁻¹.

B6: the Kd was determined as 0.14 nM, the koff turned out to be 2.6e-05 s⁻¹ and the kon was 190000 M⁻¹ s⁻¹.

B8: the dissociation constant Kd was found to be 0.074 nM, the koff was determined as 2.1e-05 s⁻¹ and the kon is 280000 M⁻¹ s⁻¹.

A further experiment has the same target. The experiment in a line: cell-based or functional assay. This is another data set of the same source.
For B1, the “Average IC50 (nM) Human IL-12, PHA blast IFN-γ assay” value came out at 0.31 nM.

As to B2, the “Average IC50 (nM) Human IL-12, PHA blast IFN-γ assay” value stood at 0.15 nM.

The target in another experiment is T3, recombinant purified cyno IL-12 p70. The experiment can be described thus: cell-based or functional assay. This is another data set of the same source.
B1: the “Average IC50 (nM) Cyno IL-12, PHA blast IFN-γ assay” value worked out at 1.4 nM.

With B2, the “Average IC50 (nM) Cyno IL-12, PHA blast IFN-γ assay” value came to 0.35 nM.

In general, Kd refers to the free concentration of one partner at which half of the binding sites on the other are occupied at equilibrium, for simple one-to-one binding. A word on the koff: it is the rate constant with which the complex falls apart. As usually defined, the kon is the rate constant with which the complex forms.
